Experimental data published in publication PMC2789664.
Like-named read-outs stand apart in the source and are kept apart here.

Columns and labels:
GAPDH wild type [1] = biological target: T1, GAPDH wild type (Homo sapiens, UniProt P04406 1-335); experiment: competition EMSA
GAPDH wild type [2] = biological target: T1, GAPDH wild type; experiment: competition EMSA; remark: listed apart in the source
GAPDH wild type [3] = biological target: T1, GAPDH wild type; experiment: EMSA
GAPDH wild type [4] = biological target: T1, GAPDH wild type; experiment: competition EMSA; remark: listed apart in the source

T1 sequence (P04406 whole entry): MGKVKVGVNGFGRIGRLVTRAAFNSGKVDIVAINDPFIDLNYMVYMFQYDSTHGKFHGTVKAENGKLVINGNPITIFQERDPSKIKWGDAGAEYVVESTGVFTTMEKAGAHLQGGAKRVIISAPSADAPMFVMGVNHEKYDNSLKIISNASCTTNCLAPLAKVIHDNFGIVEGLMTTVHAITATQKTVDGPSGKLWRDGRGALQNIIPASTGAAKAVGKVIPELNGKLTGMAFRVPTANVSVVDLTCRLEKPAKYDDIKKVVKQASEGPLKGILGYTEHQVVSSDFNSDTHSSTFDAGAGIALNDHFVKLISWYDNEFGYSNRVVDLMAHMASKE

Does TTTGGGTTTGGGTTTGGG (ssDNA) [ss-(TTTGGG)3] bind (GAPDH wild type [1])?
Result: binds

Does TTAGCGTTAGCGTTAGCG (ssDNA) [ss-(TTAGCG)3] bind (GAPDH wild type [2])?
Result: no binding

With TTAGGGTTAGGGTTAGGG (ssDNA) [ss-(TTAGGG)3] as the binder, how does the Kd (GAPDH wild type [3]) read?
The Kd was 70 ± 5 nM.

For AGGGTTAGGGTTAGGGTT (ssDNA) [ss-(AGGGTT)3], which Kd (GAPDH wild type [3]) is on record?
Its Kd is 45 ± 5 nM.

Does AGATGTAGCAATAGTAGT (ssDNA) [control 18-mer] bind (GAPDH wild type [4])?
Result: no binding

Does ATAGGGATAGGGATAGGG (ssDNA) [ss-(ATAGGG)3] bind (GAPDH wild type [2])?
Result: no binding

Does TTAGGCTTAGGCTTAGGC (ssDNA) [ss-(TTAGGC)3] bind (GAPDH wild type [2])?
Result: no binding
